Source: publication PMC11217426, “RNA-guided RNA silencing by an Asgard archaeal Argonaute”

What was measured:
HrAgo1 [1] = molecular target: T1, HrAgo1 (Candidatus Harpocratesius repetitus …, UniProt A0AAT8XUE3 1-817); experiment: cryo-EM structure; 5 mM MgCl2; smFRET: 50 mM Tris-HCl pH 8.0, 500 mM NaCl (50 mM for EfPiwi), 1 mM Trolox, glucose oxidase/catalase, 22 C; cryo-EM: 5 mM HEPES pH 7.5, 250 mM KCl, 5 mM MgCl2; settings: protein: recombinant; tags: His-MBP removed by TEV; single strand; only 6 nt modelled
T1 sequence: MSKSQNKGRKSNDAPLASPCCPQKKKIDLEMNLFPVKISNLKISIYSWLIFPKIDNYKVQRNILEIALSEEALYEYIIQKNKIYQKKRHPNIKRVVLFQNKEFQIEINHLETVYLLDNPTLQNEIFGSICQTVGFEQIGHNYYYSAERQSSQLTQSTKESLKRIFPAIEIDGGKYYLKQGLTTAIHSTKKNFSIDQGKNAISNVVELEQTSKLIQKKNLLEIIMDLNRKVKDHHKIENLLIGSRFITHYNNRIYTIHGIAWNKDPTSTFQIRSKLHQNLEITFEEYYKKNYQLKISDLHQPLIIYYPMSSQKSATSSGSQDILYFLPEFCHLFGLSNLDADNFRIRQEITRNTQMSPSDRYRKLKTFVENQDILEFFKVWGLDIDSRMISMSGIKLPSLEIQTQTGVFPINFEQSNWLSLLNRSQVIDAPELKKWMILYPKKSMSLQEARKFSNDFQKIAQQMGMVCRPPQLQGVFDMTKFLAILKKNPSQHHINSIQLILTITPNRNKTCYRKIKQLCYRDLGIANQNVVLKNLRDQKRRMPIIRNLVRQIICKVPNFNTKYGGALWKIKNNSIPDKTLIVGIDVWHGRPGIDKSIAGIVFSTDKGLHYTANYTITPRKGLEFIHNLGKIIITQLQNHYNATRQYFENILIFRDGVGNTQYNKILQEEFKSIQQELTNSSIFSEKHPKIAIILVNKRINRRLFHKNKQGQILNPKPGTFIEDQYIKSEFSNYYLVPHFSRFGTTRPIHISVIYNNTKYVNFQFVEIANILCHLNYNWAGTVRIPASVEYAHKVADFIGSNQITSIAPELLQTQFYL

HrAgo1 [2] = molecular target: T1, HrAgo1; experiment: single-molecule FRET; 500 mM NaCl; majority dwell > 200 s, plus transient sub-population; smFRET: 50 mM Tris-HCl pH 8.0, 500 mM NaCl (50 mM for EfPiwi), 1 mM Trolox, glucose oxidase/catalase, 22 C; cryo-EM: 5 mM HEPES pH 7.5, 250 mM KCl, 5 mM MgCl2; settings: protein: recombinant, tags: His-MBP removed by TEV, label: Cy5 guide, Cy3 target, 3' biotin target
HrAgo1 [3] = molecular target: T1, HrAgo1; experiment: single-molecule FRET; 500 mM NaCl; stable binding, dwell > 200 s; smFRET: 50 mM Tris-HCl pH 8.0, 500 mM NaCl (50 mM for EfPiwi), 1 mM Trolox, glucose oxidase/catalase, 22 C; cryo-EM: 5 mM HEPES pH 7.5, 250 mM KCl, 5 mM MgCl2; settings: protein: recombinant; tags: His-MBP removed by TEV; label: Cy5 guide, Cy3 target, 3' biotin target; guide nt 2-16 pair

Question: Does UGAGGUAGUAGGUUGUAUAGU (ssRNA, 5' phosphate) [let-7a guide RNA (cryo-EM)] bind (HrAgo1 [1])?
Answer: binds

B1: guide N6 / target N6 (dsRNA)
RNA 1: UGAGGUAUUUUUUUUUUUUUUU
RNA 2: UUUUUUUUUUUUUUUUUUUCUACCUCUUUUUUUUUUUUUUUUUUUUUUUUUUUUUUU
modifications: guide 5' phosphate; 5-LC-N-U at guide nt 9 and target nt 11
Question: Does B1 bind (HrAgo1 [2]; guide nt 2-7 pair)?
Answer: binds

B2: guide N8 / target N8 (dsRNA)
RNA 1: UGAGGUAGUUUUUUUUUUUUUU
RNA 2: UUUUUUUUUUUUUUUUUUACUACCUCUUUUUUUUUUUUUUUUUUUUUUUUUUUUUUU
modifications: guide 5' phosphate; 5-LC-N-U at guide nt 9 and target nt 11
Question: Does B2 bind (HrAgo1 [2]; guide nt 2-9 pair)?
Answer: binds

B3: guide N15 / target N15 (dsRNA)
RNA 1: UGAGGUAGUAGGUUGUUUUUUU
RNA 2: UUUUUUUUUUUACAACCUACUACCUCUUUUUUUUUUUUUUUUUUUUUUUUUUUUUUU
modifications: guide 5' phosphate; 5-LC-N-U at guide nt 9 and target nt 11
Question: Does B3 bind (HrAgo1 [3])?
Answer: binds
